{"source": "paper PMC7959576", "about": "(Proceedings of the National Academy of Sciences of the …, 2020)", "target": "CHIKV VLPs, E1-E2 heterodimers on the particle surface (Chikungunya virus, VLP strain not …, UniProt Q5XXP3)", "sequence (Q5XXP3 whole entry, looked up, one chain of several)": "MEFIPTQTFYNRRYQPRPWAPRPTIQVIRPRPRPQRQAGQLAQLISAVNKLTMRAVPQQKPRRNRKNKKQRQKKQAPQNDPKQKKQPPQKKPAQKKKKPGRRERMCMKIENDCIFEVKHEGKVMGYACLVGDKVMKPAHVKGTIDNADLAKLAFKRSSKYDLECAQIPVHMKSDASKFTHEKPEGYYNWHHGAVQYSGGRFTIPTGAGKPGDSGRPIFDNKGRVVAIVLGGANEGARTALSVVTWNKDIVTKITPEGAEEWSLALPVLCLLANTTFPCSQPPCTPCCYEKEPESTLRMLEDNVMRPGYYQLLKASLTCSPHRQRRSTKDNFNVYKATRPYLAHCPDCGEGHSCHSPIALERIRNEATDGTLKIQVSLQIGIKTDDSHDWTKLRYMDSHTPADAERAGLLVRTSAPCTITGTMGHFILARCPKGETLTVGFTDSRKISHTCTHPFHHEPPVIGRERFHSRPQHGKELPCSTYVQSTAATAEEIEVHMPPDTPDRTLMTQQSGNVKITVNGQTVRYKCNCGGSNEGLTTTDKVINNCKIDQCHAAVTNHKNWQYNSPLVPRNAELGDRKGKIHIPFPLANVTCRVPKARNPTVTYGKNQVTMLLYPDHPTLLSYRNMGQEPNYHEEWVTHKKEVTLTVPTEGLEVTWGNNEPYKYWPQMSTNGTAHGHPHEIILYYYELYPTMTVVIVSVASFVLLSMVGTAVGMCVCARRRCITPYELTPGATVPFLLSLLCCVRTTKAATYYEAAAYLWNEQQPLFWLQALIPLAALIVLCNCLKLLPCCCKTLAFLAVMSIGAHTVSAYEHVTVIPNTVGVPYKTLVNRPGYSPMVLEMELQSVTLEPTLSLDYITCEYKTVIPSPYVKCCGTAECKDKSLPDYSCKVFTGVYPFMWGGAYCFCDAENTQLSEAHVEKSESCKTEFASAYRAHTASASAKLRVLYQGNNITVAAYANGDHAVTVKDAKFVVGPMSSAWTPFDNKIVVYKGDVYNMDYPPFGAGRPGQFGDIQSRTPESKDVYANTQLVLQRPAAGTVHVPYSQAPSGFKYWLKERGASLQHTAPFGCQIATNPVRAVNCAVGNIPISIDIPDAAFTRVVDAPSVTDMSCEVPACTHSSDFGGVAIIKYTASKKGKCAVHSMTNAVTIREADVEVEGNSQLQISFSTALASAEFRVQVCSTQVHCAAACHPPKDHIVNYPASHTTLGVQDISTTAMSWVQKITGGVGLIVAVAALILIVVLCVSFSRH", "experiment": "ELISA"}
{"binder": "CHK-124 IgG (antibody, V domains shown) VH: QLQESGGGLVQPGGSMKLSCVASGFTFSNYWMNWVRQSPEKGLEWVAQIRLKSDSYATYYADSVKGRFTVSRDDSKSNVYLQMNSLRAEDTGIYYCTDFYGFGDFFPYWGQGTLVTVSS VL: DIVMTQSPKFMSTSIGDRVSVTCQASQNVGTNVAWYQQKPGQSPKPLIYSASYRYSGVPGRFTGSGSGTDFTLTINNVQSEDLADYFCQQYNSFPLTFGAGTKLELK", "values": [{"measurement": "binding result", "value": "binds"}]}
{"binder": "CHK-263 IgG (antibody, V domains shown) VH: VQLQQSGAELVKPGASVKISCKASGYAFSSYWMNWVKQRPGKGLEWIGQIYPGDGDTNYNGKFKGKATLTADKSSSTAYMQLSSLTSEDSAVYFCARGGLTIDYWGQGTTLTVSS VL: DIVLTQSPATLSVTPGDSVSLSCRASQSISDNLHWYQQKSHESPGLLIKYASQSISGIPSRFSGSGSGTDFTLSINSVETEDFGMYFCQQSNSWPYTFGGGTKLEIK", "values": [{"measurement": "binding result", "value": "binds"}]}
